Where “and” joins values, the source holds several entries; their conditions need not be identical. Equal values may be shown once.

The target in assay [1] is human PTK7 on non-engineered cells (human), Q13308. The assay can be described thus: cell-based or functional assay.
The target in assay [2] is human PTK7 on non-engineered cells (human) (UniProt Q13308). Put plainly: cell-based or functional assay.

B1: SC6.41 (antibody, V domains shown)
VH: EVQLQQSGAESVRSGASVKLSCTASGLNIKDYYMHWVNLRPEQGLEWIGWIDPENGDTEYAPEFQGKATMTADTSSNTAYLQLSSLTSEDTAVYYCNACNYGSAYGYWGQGTTLTVSS
VL: DIVLTQATPSVPVTPGESVSISCRSSKSLLHTKGDTYLYWFLQRPGQSPQLLIYRMSNLASGVPDRFSGSGSGTVFTLRISRVEAEDVGVYYCMQHLEYPFTFGSGTKLEIKR
In the case of B1, in assay [1], the EC50, saporin (Fab-ZAP) cell killing, G401 Cells is 2.6 pM and the EC50, saporin (Fab-ZAP) cell killing, HEK293T Cells was determined as 5.7 pM.

B2: SC6.23 (antibody, V domains shown)
VH: QVTLKESGPGILKPSQTLSLTCSFSGFSLSTSNMGVGWIRQPSGKGLEWLAHIWWDDDKYYNPSLKSQLTISKDTSRNQVFLKITSVDTEDTATYYCVRSNYGYAWFAYWGQGTLVTVSA
VL: DIKMTQSPSSMYASLGERVTITCKASQDIYPYLNWFQQKPGKSPKTLIYRTNRLLDGVPSRFSGSGSGQDYSLTISSLDYEDMGIYYCLQYDEFPLTFGAGTKLELK
In assay [1], B2 showed an EC50, saporin (Fab-ZAP) cell killing, G401 Cells of 2.6 pM and an EC50, saporin (Fab-ZAP) cell killing, HEK293T Cells of 3 pM.

B3: SC6.21 (antibody, V domains shown)
VH: SDVQLQESGPGLVKPSQTLSLTCSVPDYSITSDYHWHWIRQFPGNKLEWMGYISSRGSTNYNPSLKNRISITHDTSENQFFLKLTSVTTEDSATYYCAGLSQLALDYWGQGTTLTVSS
VL: DIVMSQSPSSLAVSVGEKVTLSCKSSQSLLYSSTQNNYLAWYQQTPGQSPKLLIYWASTRESGVPDRFTGSGSGTDFTLTISSVKAEDLAVYYCQQYYSYPWTFGGGTKLEIK
Take B3: in assay [1], the EC50, saporin (Fab-ZAP) cell killing, G401 Cells was 200 pM.

B4: SC6.58 (antibody, V domains shown)
VH: EVKLLESGGGLVQPGGSLKLSCAASGFDFSRYWMSWVRQAPGKGLEWIGDLNPDSSAINYTPSLKDKFIISRDNAKNTLYLQMSKVRSEDTALYYCTLITTLVPYTMDFWGQGTSVTVSS
VL: ETTVTQSPASLSMAIGEKVTIRCITNTDIDDDMNWYQQKPGEPPKLLISEGNGLRPGVPSRFSSSGYGTDFVFTIENMLSEDVADYYCLQSDNLPLTFGSGTKLEIK
As for B4, in assay [1], the EC50, saporin (Fab-ZAP) cell killing, G401 Cells was determined as 35.1 pM and the EC50, saporin (Fab-ZAP) cell killing, HEK293T Cells was determined as 86.8 pM.

B5: SC6.2.35 (antibody, V domains shown)
VH: QVQMQQSGAELMKPGASVKLSCKATGYTFTGYWIEWVKQRPGHGLEWIGEILPGSGRSNSNEKFKGKATFTADTSSNTAYMQLSSLTTEDSAIYYCARGKLSWGQGTLVTVSA
VL: DIVLTQSPASLAVSLGQRATISCRASESVDSFGNSFMHWYQQKPGQPPKLLIYAASNLGSGVPARFSGSGSGTDFSLNIHPVEEDDSAMYFCQQSKEVPRTFGGGSRLEIKR
Consider B5, for which, in assay [2], the EC50, saporin (Fab-ZAP) cell killing, G401 Cells was found to be 1.1 pM; the EC50, saporin (Fab-ZAP) cell killing, HEK293T Cells worked out at 0.45 pM; the elimination of BR13 and BR64 breast NTX tumor cells, antibody at 0.2 nM with Fab-ZAP is 70% and 80%.

B6: SC6.24 (antibody, V domains shown)
VH: QVQLQQSGPEVVRPGVSVKISCKGSGYTFTDYAVHWVKLSHAKSLEWIGVISTYNDYTYNNQDFKGKATMTVDKSSSTAYMELARLTSEDSAIYYCARGNSYFYALDYWGQGTSVTVSS
VL: DIVLTQSPASLAVSLGQRATISCRASESVDSYGKSFMHWYQQRPGQPPKLLIYRASNLESGIPARFSGSGSRTDFTLTINPVEADDVATYYCQQSNEDPWTFGGGTKLEIK
As for B6, in assay [1], the EC50, saporin (Fab-ZAP) cell killing, G401 Cells is 6.7 pM and the EC50, saporin (Fab-ZAP) cell killing, HEK293T Cells was 11 pM.

The values are drawn from patent US20180162952A1.
